Experimental data as given in patent US6472178.

Legend:
[1] = biological target: T1, rat CNTF receptor on rat superior cervical ganglia (SCG) neurons (rat, UniProt Q08406 23-342); assay: competition with 125I-rat CNTF on rat SCG neurons
T1 construct: whole, on cells; Native neurons; also called rat receptor
T1 sequence (looked up): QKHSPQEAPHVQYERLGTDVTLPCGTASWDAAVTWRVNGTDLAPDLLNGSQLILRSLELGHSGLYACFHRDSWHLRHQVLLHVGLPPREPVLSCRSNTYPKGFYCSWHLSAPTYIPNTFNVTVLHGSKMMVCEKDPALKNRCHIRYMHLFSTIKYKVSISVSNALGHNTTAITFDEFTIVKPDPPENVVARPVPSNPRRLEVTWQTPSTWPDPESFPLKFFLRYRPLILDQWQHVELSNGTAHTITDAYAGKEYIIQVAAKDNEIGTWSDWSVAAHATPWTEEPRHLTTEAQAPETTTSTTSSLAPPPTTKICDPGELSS
Procedure: Reactions were incubated for 45 min at 0° C. followed by 15 min at room temperature and terminated by the addition of […] of 0.2 M glycine solution. After 15 min, 0.2 ml PBS containing 0.08% gelatin was also added and the mixture was passed through a Superdex-75 column (Pharmacia) to separate the labelled monomeric CNTF from dimeric and other multimeric derivatives. Percentage of incorporation was typically 20%, as determined by thin layer chromatography and the specific activity was typically around 1,000 Ci/mmole. […] Growth medium consisted of Ham's nutrient mixture F12 with 10% heat-inactivated fetal bovine serum (Hyclone), nerve growth factor (NGF) (100 ng/ml), penicillin (50 U/ml) and streptomycin (50 µg/ml). Cultures were maintained at 37° C. in a humidified 95% air/5% CO_2 atmosphere. Ganglion non-neuronal cells were eliminated by treatment with araC (10 µM) on days 1 and 3 of culture. Cultures were fed 3 times/week and were routinely used for binding assays within 2 weeks.
Binding was performed directly on cell monolayers. Cells in culture wells were washed once with assay buffer consisting of phosphate buffered saline (PBS; pH 7.4), 0.1 mM bacitracin, 1 mM PMSF, 1 µg/ml leupeptin, and 1 mg/ml BSA. […] Non-specific binding was determined in the presence of 1,000-fold excess of unlabelled CNTF. […] Data were analyzed using the […] program (ISI, Philadelphia, Pa.).

[2] = biological target: T2, human CNTF receptor α-component on MG87/CNTFR fibroblasts (human, UniProt P26992 23-342); assay: competition with 125I-rat CNTF on MG87/CNTFR cells
T2 construct: whole, on cells; also called CNTFRα; MG87/huCNTFR
T2 sequence (looked up): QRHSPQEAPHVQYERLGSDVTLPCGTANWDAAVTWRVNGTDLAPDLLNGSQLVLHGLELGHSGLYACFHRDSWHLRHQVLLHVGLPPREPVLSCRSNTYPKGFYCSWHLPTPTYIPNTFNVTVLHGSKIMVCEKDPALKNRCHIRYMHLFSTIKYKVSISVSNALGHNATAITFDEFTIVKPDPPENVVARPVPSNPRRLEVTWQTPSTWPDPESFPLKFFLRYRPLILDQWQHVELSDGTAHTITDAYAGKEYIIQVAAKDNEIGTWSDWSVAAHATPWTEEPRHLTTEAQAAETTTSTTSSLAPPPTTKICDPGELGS

IC50 [1]: 0.28 nM
IC50 [2]: 2.8 nM
B1: recombinant rat CNTF (ciliary neurotrophic factor) (ligand)
chain: MAFAEQTPLTLHRRDLCSRSIWLARKIRSDLTALMESYVKHQGLNKNINLDSVDGVPVASTDRWSEMTEAELRQENLQAYRTFQGMLTKLLEDQRVHFTPTEGDFHQAIHTLMLQVSAFAYQLEELMVLLEQKIPENEADGMPATVGDGGLFEKKLWGLKVLQELSQWTVRSIHDLRVISSHQMGISALESHYGAKDKQM
notes: also called unlabelled rat CNTF
